These results are taken from patent publication US20230272055A1 (Incyte, published 2023).

For this assay, the target named is MBP protein (UniProt P0AEX9 27-392 = MBP). Description: SPR (Biacore 8K), antibody captured on anti-human IgG (Fc), MBP injected. As for the experimental part: Experiment 1: Recombinant MBP-mutCALR Type 1 fusion protein was custom made at Cepter (cepterbiopartners.com). Data for the interaction of antibodies with recombinant MBP-mutCALR Type 1 fusion protein were collected at 25° C. on a Biacore 8K instrument (Cytiva, Marlborough, Mass.), and all reagents were obtained from Cytiva unless otherwise specified. The experiments were conducted using Tris-buffered saline (pH 7.2), 0.005% Surfactant P20, 1 mM CaCl₂) as running buffer. To prepare the capture surfaces, anti-human IgG (Fc) antibodies (Product #29234600) was amine-coupled onto a CM4 chip (Product #BR100534) under standard conditions using an Amine Coupling Kit (Product #BR100050). […] The kinetics parameters were obtained by applying 1:1 binding model to fit the data from multiple-cycle injection experiments using Biacore Insight Evaluation software.
(In general: In SPR one partner is held on a chip, and binding of the other changes the refractive index at the surface.)

B1: anti-mutCALR antibody clone 48 (antibody, human IgG1, lambda, V domains shown)
VH: EVQLVQSGAEVKKPGSSVKVSCKASGGTFSSYAISWVRQAPGQGLEWMGGIIPIFGTANYAQKFQGRVTITADESTSTAYMELSSLRSEDTAVYYCASSPLRGSGWYWHYYYGMDVWGQGTTVTVSS
VL: SYVLTQPPSVSVAPGKTARITCGGNNIGSKSVHWYQQKPGQAPVLVIYQDRKRPSGIPERFSGSNSGNTATLTISGTQAMDEADYYCQAWDSSTAVFGGGTKLTVLG
In the case of B1, the binding result was “no binding (tested: 250 nM)”.

B2: anti-mutCALR antibody clone 49 (antibody, human IgG1, lambda, V domains shown)
VH: EVQLVQSGAEVKKPGSSVKVSCKASGGTFSSYAISWVRQAPGQGLEWMGGIIPIFGTANYAQKFQGRVTITADESTSTAYMELSSLRSEDTAVYYCASSPLRGSGWYWHYYYGMDVWGQGTTVTVSS
VL: SYELTQPPSVSVAPGKTARITCGGNNIRAKHVHWYQQKPGQSPVLVIYQDSKRPSGIPERFSGSNSGSTATLTISRVEAGDEADYYCQVWDSSTVVFGGGTKLTVLG
For the molecule B2, the binding result is “no binding (tested: 250 nM)”.

B3: anti-mutCALR antibody clone 43 (antibody, human IgG1, lambda, V domains shown)
VH: EVQLVQSGAEVKKPGASVKVSCKASGGTFSSYAISWVRQAPGQGLEWMGGIIPIFGTANYAQKFQGRVTITADESTSTAYMELSSLRSEDTAVYYCASSPLRGSGWYWHYYYGMDVWGQGTTVTVSS
VL: not shown
B3: the binding result is “no binding (tested: 250 nM)”.

B4: anti-mutCALR antibody clone 47 (antibody, human IgG1, lambda, V domains shown)
VH: EVQLVQSGAEVKKPGSSVKVSCKASGGTFSSYAISWVRQAPGQGLEWMGGIIPIFGTANYAQKFQGRVTITADESTSTAYMELSSLRSEDTAVYYCASSPLRGSGWYWHYYYGMDVWGQGTTVTVSS
VL: SYELTQPPSVSVAPGKTARITCGGNKIGTKSVHWYQQKPGQAPVLVIYRDSNRPSGIPERFSGSNSGNTATLTISRAQAGDEADYYCQVWDSSTVVFGGGTKLTVLG
Turning to B4, the binding result is recorded as “no binding (tested: 250 nM)”.

B5: anti-mutCALR antibody clone 51 (antibody, human IgG1, lambda, V domains shown)
VH: EVQLVQSGAEVKKPGSSVKVSCKASGGTFSSYAISWVRQAPGQGLEWMGGIIPIFGTANYAQKFQGRVTITADESTSTAYMELSSLRSEDTAVYYCASSPLRGSGWYWHYYYGMDVWGQGTTVTVSS
VL: SYELTQPPSVSVAPGKTARITCGGNKIGTKSVHWYQQKPGQAPVLVIYQDSKRPSGIPERFSGSNSGNTATLTISGTQAMDEADYYCQAWGSSTVVFGGGTKLTVLG
For the molecule B5, the binding result is “no binding (tested: 250 nM)”.

B6: anti-mutCALR antibody clone 44 (antibody, human IgG1, lambda, V domains shown)
VH: EVQLVQSGAEVKKPGSSVKVSCKASGGTFSSYAISWVRQAPGQGLEWMGGIIPIFGTANYAQKFQGRVTITADESTSTAYMELSSLRSEDTAVYYCASSPLRGSGWYWHYYYGMDVWGQGTTVTVSS
VL: SYVLTQPPSVSAAPGKTARISCGGNNIRSKSVHWYQQKAGQAPVLVIYQDSKRPSGIPERFSGSNSGNTATLTISGTQAMDEADYYCQAWDSNTVVFGGGTKLTVLG
Consider B6, for which the binding result is “no binding (tested: 250 nM)”.

B7: anti-mutCALR antibody clone 45 (antibody, human IgG1, lambda, V domains shown)
VH: EVQLVQSGAEVKKPGSSVKVSCKASGGTFSSYAISWVRQAPGQGLEWMGGIIPIFGTANYAQKFQGRVTITADESTSTAYMELSSLRSEDTAVYYCASSPLRGSGWYWHYYYGMDVWGQGTTVTVSS
VL: SYVLTQPLSVSVAPGQTARITCGGNNIGRKSVHWYQQKPGQAPVLVIYRDSNRPSGIPERFSGSNSGNTATLTISRAQAGDEADYYCQVWDSSTVVFGGGTKLTVLG
For the molecule B7, the binding result was “no binding (tested: 250 nM)”.

B8: anti-mutCALR antibody clone 46 (antibody, human IgG1, lambda, V domains shown)
VH: QVQLVQSGAEVKKPGSSVKVSCKASGGTFSSYAISWVRQAPGQGLEWMGGIIPIFGTANYAQKFQGRVTITADESTSTAYMELSSLRSEDTAVYYCASSPLRGSGWYWHYYYGMDVWGQGTTVTVSS
VL: SYELTQPPSVSVAPGKTARITCGGNNIRSKSVHWYQQKPGQAPVLVVYQDSKRPSGIPERFSGSNSGNTATLTISGTQAMDEADYYCQVWDSSTAVFGGGTKLTVLG
With B8, the binding result is on record as “no binding (tested: 250 nM)”.

B9: anti-mutCALR antibody clone 50 (antibody, human IgG1, lambda, V domains shown)
VH: QMQLVQSGAEVKKPGSSVKVSCKASGGTFSSYAISWVRQAPGQGLEWMGGIIPIFGTANYAQKFQGRVTITADESTSTAYMELSSLRSEDTAVYYCASSPLRGSGWYWHYYYGMDVWGQGTTVTVSS
VL: SYVLTQPPSVSVAPGKTARITCGGNNIGTKSVHWYQQKPGQSPVLVIYQDRKRPSGIPERFSGSNSGNTATLTISGTQAMDEADYYCQVWDSSTEVFGGGTKLTVLG
Regarding B9, the binding result is on record as “no binding (tested: 250 nM)”.

B10: anti-mutCALR antibody clone 41 (antibody, human IgG1, lambda, V domains shown)
VH: EVQLVQSGAEVKKPGASVKVSCKVSGYTLTELSMHWVRQAPGKGLEWMGLVDPEDGETIYAQKFQGRVTMTEDTSTDTAYMELSSLRSEDTAVYYCAREEWSGDGDDAFDIWGQGTMVTVSS
VL: QSVLTQPPSVSAAPGQKVTISCSGSSSNIGSYSVSWYQQLPGTAPKLLIYDNNKRPSGIPDRFSGSNSGTSATLGITGLQTGDEADYYCGTWDSSLSAWVFGGGTKLTVLG
notes: human IgG1; group 4
Turning to B10, the binding result was “no binding (tested: 250 nM)”.

B11: anti-mutCALR antibody clone 42 (antibody, human IgG1, lambda, V domains shown)
VH: EVQLVQSGAEVKKPGASVKVSCKVSGYTLTELSMHWVRQAPGKGLEWMGLVDPEDGETIYAQKFQGRVTMTEDTSTDTAYMELSSLRSEDTAVYYCAREEWSGDGDDAFDIWGQGTMVTVSS
VL: QSVLTQPPSVSAAPGQKVTISCSGSSSNIGSYSVSWYQQLPGTAPKLLIYDDNKRPSGIPDRFSGSNSGTSATLSITGLQTGDEADYYCGTWDSSLSAWVFGGGTKLTVLG
notes: human IgG1; group 4
On to B11, for which the binding result was “no binding (tested: 250 nM)”.

B12: anti-mutCALR antibody clone 40 (antibody, human IgG1, lambda, V domains shown)
VH: EVQLVQSGAEVKKPGASVKVSCKVSGYTLTESSMHWVRQAPGKGLEWMGLVDPEDGETIYAQKFQGRVTMTEDTSTDTAYMELSSLRSEDTAVYYCAREEWSGDGDDAFDIWGQGTMVTVSS
VL: QSVLTQPPSVSAAPGQKVTISCSGSSSNIGSYSVSWYQQLPGTAPKLLIYDNNKRPSGIPDRFSGSNSGTSATLGITGLQTGDEADYYCGTWDSSLSAWVFGGGTKLTVLG
notes: human IgG1; group 4
As to B12, the binding result is given as “no binding (tested: 250 nM)”.

B13: anti-mutCALR antibody clone 52 (antibody, human IgG1, kappa, V domains shown)
VH: EVQLVQSGAEVKKPGASVKVSCKVSGYTLTELSMHWVRQAPGKGLEWMGLVDPEDGETIYAEKFQGRVTITADTSTDTAYMELSSPRSEDTAVYYCATTIGDDYFDYWGQGTLVTVSS
VL: not shown
As for B13, the binding result is listed as “no binding (tested: 250 nM)”.

B14: anti-mutCALR antibody clone 30 (antibody, human IgG1, lambda, V domains shown)
VH: EVQLVQSGAEVKKPGASVKVSCKVSGYTLTELSMQWVRQAPGKGLEWMGGFDPDDGETMYAEKFQGRLTVTEDTSTDTVYMELRSLTSEDTALYFCATSPGYDFFDYWGQGTLVTVSS
VL: SYVLTQPPSVSVAPGKTATITCGGNNIGTKSVHWYQQKPGQAPVLVVYDDSDRPSGIPERFSGSNSGNTATLTINRVEAGDEADYYCQVWDSSNDLLIFGGGTKLTVLG
notes: human IgG1; group 1
Regarding B14, the binding result is on record as “no binding (tested: 250 nM)”.

B15: anti-mutCALR antibody clone 11 (antibody, human IgG1, lambda, V domains shown)
VH: EVRLVQSGAEVKKPGASVKVSCKVSGYTLTELSMQWVRQAPGKGLEWMGGFDPDDGETMYAEKFQGRLTVTEDTSTDTVYMELRSLTSEDTALYFCATSPGYDFFDYWGQGTLVTVSS
VL: QSALTQPRSVSGSPGQSVTISCTGTSSDVGGYNYVSWYQQHPGKAPKLMIYDVSKRPSGVPDRFSGSNSGNTATLTINRVEAGDEADYYCQVWDSSNDLLIFGGGTKLTVLG
notes: human IgG1; group 1
With B15, the binding result is reported as “no binding (tested: 250 nM)”.

B16: anti-mutCALR antibody clone 33 (antibody, human IgG1, lambda, V domains shown)
VH: QVQLVQSGAEVKKPGATVKISCKVSGYSFTDYFIHWVQQAPGKGLAWVGLVDPEDGETIYAEKFQGRVTITADTSTDTAYMELSSLRSEDTAVYYCATPGGILTDPDAFDIWGQGTMVTVSS
VL: QSALTQPRSVSGSPGQSVTISCAGTGSDVGGYNHVSWYQHHPGKAPKLMIYDVNKRPSGVPDRFSGSKSGNTASLTISGLQAEDEADYYCSSYIPSSTRWVFGGGTKLTVLG
notes: human IgG1; group 2
Consider B16, for which the binding result was “no binding (tested: 250 nM)”.

B17: anti-mutCALR antibody clone 34 (antibody, human IgG1, lambda, V domains shown)
VH: QVQLVQSGAEVKKPGATVKISCKVSGYSFTDYFIHWVQQAPGKGLAWVGLVDPEDGETIYAEKFQGRVTITADTSTDTAYMELSSLRSEDTAVYYCATPGGILTDPDAFDIWGQGTMVTVSS
VL: QSALTQPASVSGSPGQSITISCTGTSSDVGGYNYVSWYQQHPGKAPKLMIYEVSNRPSGVSNRFSGSKSGNTASLTISGLQAEDEADYYCSSYTSSSTYVFGTGTKVTVLG
notes: human IgG1; group 2
Regarding B17, the binding result is listed as “no binding (tested: 250 nM)”.

B18: anti-mutCALR antibody clone 38 (antibody, human IgG1, kappa, V domains shown)
VH: EVQPVQSGAEVKKPGSSVKVSCKASGGTFSSYAISWVRQAPGQGLEWMGLVDPEDGETIYAEKFRGRVTITADTSTDTAYMELSSLRSEDTAVYYCATEESYGPWGQGTLVTVSS
VL: DIQLTQSPSSLSASVGDRVTITCQASQDISNYLNWYQQKPGKAPKLLIYDASNLETGVPSRFSGSGSGTEFTLTISSLQPEDFATYYCQQLNSYPLTFGGGTKLEIKR
notes: human IgG1; group 3
B18: the binding result is reported as “no binding (tested: 250 nM)”.

B19: anti-mutCALR antibody clone 39 (antibody, human IgG1, kappa, V domains shown)
VH: EVQLVQSGAEVKKPGSSVKVSCKASGGTFSSYAISWVRQAPGQGLEWMGLVDPEDGETIYAEKFQGRVTITADTSTDTAYMELSSLRSEDTAVYYCATEESYGPWGQGTLVTVSS
VL: DIQLTQSPSSLSASVGDRVTITCQASQDISNYLDWYQQKPGKAPKLLIYDASNLETGVPSRFSGSGSGTEFTLTISSLQPEDFATYYCQQLNSYPLTFGGGTKLEIKR
notes: human IgG1; group 3
On to B19, for which the binding result is on record as “no binding (tested: 250 nM)”.
